Experiment [1] deals with B.1.351 (S1). The experiment in a line: ELISA, heat map.
Experiment [2] concerns the target V483A. Briefly: ELISA, heat map.
In experiment [3] the target is K458R. Briefly: ELISA, heat map.
For experiment [4], the target named is F342L. Briefly: ELISA, heat map.
In experiment [5] the target is K417N. Briefly: ELISA, heat map.
Experiment [6] has as its target N501Y. Briefly: ELISA, heat map.
In experiment [7] the target is N439K. Briefly: ELISA, heat map.
The target in experiment [8] is N354D. The experiment in a line: ELISA, heat map.
Experiment [9] concerns the target Y453F. Briefly: ELISA, heat map.
Experiment [10] concerns the target A435S. The experiment in a line: ELISA, heat map.
Experiment [11] has as its target G476S. Briefly: ELISA, heat map.
For experiment [12], the target named is V367F. Briefly: ELISA, heat map.
The target of experiment [13] is W436R. Briefly: ELISA, heat map.
In experiment [14] the target is E484K. The experiment in a line: ELISA, heat map.
The target in experiment [15] is SARS-CoV-2 Spike trimer (recombinant, wild type) (SARS-CoV-2, UniProt P0DTC2 14-1213). Briefly: ELISA on plate-adsorbed recombinant Spike.
For experiment [16], the target named is T1, SARS-CoV-2 Spike RBD (tagless) (SARS-CoV-2, UniProt P0DTC2 319-541).
Experiment [17] deals with T1, SARS-CoV-2 Spike RBD (tagless). The experiment in a line: Octet BLI; tagless RBD as analyte over 23-H7-coated AHC sensors; 1:1 kinetic fit.

Experimental findings from patent US20230250158A1 (TALEM THERAPEUTICS, published 2023) are described below.

Like-named read-outs stand apart in the source and are kept apart here.

B1: 2-A6 (antibody, V domains shown)
VH: QVTLRESGPALVKPTQTLTLTCTFSGFSLNTRGMSVSWIRQPPGKALEWLALIDWEDDKFYRTSLMTRLTISKDIFKNQVVLTMTNVDPVDTGTYYCARTYSVGVKYFGMDVWGQGTTVTVSS
VL: SSELTQDPAVSVALGQTVRITCQGDSLRNYYASWYRQEPGQAPILLIYGGNYRPSGIPDRFSGSSSGNTASLTITGAQAEDEADYYCNSRDSSGNHVVFGGGTKLTVL
notes: also called bin S2
As to B1, the binding result in experiment [1] was “no binding”.

B2: 22-F7 (antibody, V domains shown)
VH: QVQLVESGGGVVQPGRSLRLSCAASGFSFTNYGMHWVRQAPGKGLEWVAVISYDGSIKYYEDSLKGRFTVSRDNSKKTLYLQMNSLRAEDTAVYYCTRERGTGIDYWGLGTLVTVSS
VL: QSALTQPASVSGYPGQSITLSCTGTKSDIGAYNYVSWYQQHPGKAPKLMVYDVSNRPSGLSNRFSGSKSDNTASLTISGLQAEDEAHYYCSSYTTSGTVVFGGGTKVTVL
notes: also called bin C
Take B2: the binding result in experiment [1] is “binds”.

B3: 22-D9 (antibody, V domains shown)
VH: QVQLVQSGAEVKKPGSSVNVSCKTSGGTFNTYSINWVRQAPGQGLEWMGEIIPIFDKPNYAQKFQGRVTITADESTSTAYMELTSLRSDDTAVYYCARGTGYYYGMDVWGQGTTVTVSS
VL: QSVLTQPPSVSGAPRQTVTISCFGSRSNIGNYPVNWYHQVPGKAPKVVVYYDDLLPSGISDRFSGYKSGTSASLTISGLRSEDEADYYCATWDDSLNVWVFGGGTKLTVL
notes: also called bin 4
Consider B3, for which the binding result in experiment [2], in experiment [3], in experiment [4], in experiment [5], in experiment [6] and in [7] was “binds” throughout. For the same molecule, the binding result in [8], in experiment [9], in experiment [10], in [11], in experiment [12] and in experiment [13] was “binds” each time. Besides, the binding result is given as “no binding” in [1] and “binds” in [14]. In experiment [15], the “EC50 (read off the curve)” value is approximately 10 ng/mL.

B4: 22-E7 (antibody, V domains shown)
VH: QVQLVESGGGVVQPGTSLRLSCAASGFTFNNYPMFWVRQAPGKGLEWLALISYDGNHKVYADSVKGRFTISRDNAKNTLYLQMHSLRAEDTALYYCASDLSGAEDSWGQGTLVTVSS
VL: QSALTQPASVSGSPGQSITISCTGTSSDVGGYNYVSWYQQHPGKAPKLLIYEVSNRPSGVSNRFSGSKSGNTASLTISGLQAEDEADYYCSSYTSSSTWVFGGGTKLTVL
notes: also called bin C
In the case of B4, the binding result in experiment [1] is given as “binds”.

B5: 23-H7 (antibody, V domains shown)
VH: QVQLVQSGAEVKLPGASMKVSCKASGYTFSTYYMHWVRQAPGQGPEWMGVIDPSGGTTSYAQKFHDRIAMTRDTSTSTAYLELSSLRSEDMAVYYCARGGFADAVDYWGQGTLVTVSS
VL: NFMLTQPHSVSGSPGKTVTISCTRNSGSIAGNYVQWYQQRPGSAPTTVIYEDNQRPSGVPDRFSGSIDSSSNSASLTISGLKTEDEADYYCQSYDASHLHVIFGGGTKVTVL
notes: also called bin 2
For B5, the binding result in [2], in experiment [3], in experiment [5], in experiment [6], in [7] and in experiment [8] was “binds” throughout. The binding result in experiment [9], in experiment [10], in experiment [11], in [12], in experiment [13] and in experiment [1] was “binds” in each case. Moreover, the binding result in [14] is “binds”. The dissociation constant (Kd) in experiment [16] and in experiment [17] was 4 nM throughout. Moreover, the “EC50 (read off the curve)” value in [15] is approximately 2 ng/mL.

B6: 23-H7 Fab (Fab, V domains shown)
VH: B5 VH
VL: B5 VL
For the molecule B6, the affinity in [16], expressed as Kd, was 4.6 nM. This lies in the single-digit nanomolar range.
